Measurements as given in patent publication US20170314054A1 (ROCHE SEQUENCING SOLUTIONS, published 2017).
No end group written: not given here.

B1: microbial transglutaminase from Streptomyces mobaraensis (MTG) (protein)
chain: DSDDRVTPPAEPLDRMPDPYRPSYGRAETVVNNYIRKWQQVYSHRDGRKQQMTEEQREWLSYGCVGVTWVNSGQYPTNRLAFASFDEDRFKNELKNGRPRSGETRAEFEGRVAKESFDEEKGFQRAREVASVMNRALENAHDESAYLDNLKKELANGNDALRNEDARSPFYSALRNTPSFKERNGGNHDPSRMKAVIYSKHFWSGQDRSSSADKRKYGDPDAFRPAPGTGLVDMSRDRNIPRSPTSPGEGFVNFDYGWFGAQTEADADKTVWTHGNHYHAPNGSLGAMHVYESKFRNWSEGYSDFDRGAYVITFIPKSWNTAPDKVKQGWP

Assays:
[1] = target: T1, microbial transglutaminase from Streptomyces mobaraensis (MTG) (Streptomyces mobaraensis, UniProt P81453 77-407); assay: cell-based or functional assay
T1 sequence (looked up): B1 chain

[2] = target: T2, Z-GGGARSKLGGGG (SEQ ID NO: 80)
T2 chain: GGGARSKLGGGG

[3] = target: T3, Z-GGGDEKPDGGGG (SEQ ID NO: 81)
T3 chain: GGGDEKPDGGGG

[4] = target: T4, Z-GGGDYALQGGGG (SEQ ID NO: 86)
T4 chain: GGGDYALQGGGG

Binder	A (array MTG labeling signal with Z-Gln-Gly-CAD-biotin) [1]	KM (GLDH-coupled MTG activity assay, 100 µM Z-GGGDYALQGGGG as amine acceptor) [2] [µM]	Vmax (GLDH-coupled MTG activity assay, 100 µM Z-GGGDYALQGGGG as amine acceptor) [2] [pmol/s]	difference in MTG catalytic efficiency against GGGDEKPDGGGG (SEQ ID NO: 81) [2]	kcat (GLDH-coupled MTG activity assay, 100 µM Z-GGGDYALQGGGG as amine acceptor) [2] [s⁻¹]	kcat/KM (GLDH-coupled MTG activity assay, 100 µM Z-GGGDYALQGGGG as amine acceptor) [2] [M⁻¹ s⁻¹]	stated: almost no MTG turnover (rate of NADH oxidation, GLDH-coupled assay, 100 uM Z-GGGDYALQGGGG as amine acceptor) [3]	KM (GLDH-coupled MTG activity assay) [4] [mM]	Vmax (GLDH-coupled MTG activity assay) [4] [nmol/s]	difference in MTG catalytic efficiency against standard QG-substrate [4]	kcat (GLDH-coupled MTG activity assay) [4] [s⁻¹]	kcat/KM (GLDH-coupled MTG activity assay) [4] [M⁻¹ s⁻¹]
GYKLK (also: flanked by G:S (3:1) linkers on peptide array) [GYKLK (SEQ ID NO: 78)]	13.3											
B1		66.8	5.1	an apparent difference in MTG catalytic efficiency of at least 10-fold was observed	0.066	990	filled circles: rate stays at about 0 pmol/s from 0 to 200 uM and reaches only about 0.2 pmol/s at 500 uM	0.97	0.46	a difference in MTG catalytic efficiency of at least 3-fold	6	6200
QRTKL (also: flanked by G:S (3:1) linkers on peptide array) [QRTKL (SEQ ID NO: 77)]	13.3											
